We go through three molecules from publication PMC5507604, “Structure of the Neisseria Adhesin Complex Protein (ACP) and its role as a novel lysozyme inhibitor” (PLoS Pathogens, 2017).

Assay [1] has as its target hen egg-white lysozyme (Hewl) (hen (chicken)) (UniProt P00698).
Assay [2] has as its target human lysozyme (HL) (human) (UniProt P61626).
In the next assay the target is T1, human lysozyme (HL) (human, UniProt P61626 19-148, NT-647-NHS fluorescent dye (in the MST experiment only)).
T1 construct: human C-type lysozyme; MST used labelled recombinant HL; also called rHL; recombinant HL; source: bought: Sigma-Aldrich (recombinant HL, MST)
T1 sequence (looked up): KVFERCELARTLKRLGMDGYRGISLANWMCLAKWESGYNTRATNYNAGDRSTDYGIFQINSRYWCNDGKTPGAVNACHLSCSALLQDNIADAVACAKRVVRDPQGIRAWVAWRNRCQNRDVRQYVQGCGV
The assay can be described thus: MST; NT-647-labelled rHL (8.3 nM) constant, 16 two-fold serial dilutions of 2.5 mM rNm-ACPI mixed 1:1; 50 mM Tris pH 7.4, 150 mM NaCl, 10 mM MgCl2, 0.05% (v/v) Tween-20; 20% and 40% MST power, LED 20%; triplicate. To be noted: both partners purified.

hen egg-white lysozyme (Hewl) (hen (chicken)), sequence (P00698 19-147): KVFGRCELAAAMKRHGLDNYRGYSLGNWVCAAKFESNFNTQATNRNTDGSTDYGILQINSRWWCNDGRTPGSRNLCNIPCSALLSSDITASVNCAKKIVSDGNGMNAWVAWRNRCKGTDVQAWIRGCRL

In the case of “Nm-ACPI triple mutant Asn79Ala/Tyr84Ala/Gly95Ala (natural protein)”, the inhibition of Hewl (EnzChek assay, initial rate period) compared with wild-type Nm-ACPI (% reduced activity) in assay [1] is 39.
With “recombinant Neisseria gonorrhoeae Adhesin Complex Protein (rNg-ACP) (natural protein)”, in assay [2], the protection of M. lysodeikticus cells (1 mg/ml) against lysis by HL (2 μg/ml), OD 595 nm over 2 h and at 24 h, rNg-ACP 0-0.5 μg/ml; ~30–60% protection at 0.1 μg/ml, not protective below 0.1 μg/ml lay in the range of 80 to 100 % protection.

B1: recombinant Neisseria meningitidis Adhesin Complex Protein Type I (rNm-ACPI) (natural protein)
chain: AGTDNPTVAKKTVSYVCQQGKKVKVTYGFNKQGLTTYASAVINGKRVQMPVNLDKSDNVETFYGKEGGYVLGTGVMDGKSYRKQPIMITAPDNQIVFKDCSPR
notes: Adhesin Complex Protein (ACP) Type I, encoded by Allele 1, N. meningitidis serogroup B strain MC58 (NMB2095/NEIS2075); mature polypeptide of 103 residues (amino acids 22-124), mass 12,306 Da with the tag; disulphide bond Cys38-Cys121; Cloned between NdeI and XhoI of pET22b(+); The same construct, 15N-labelled, was used for NMR; also called NMB2095; NEIS2075; source: E. coli BL21 (DE3) pLysS, …
For the molecule B1, the affinity with human lysozyme (HL), expressed as Kd, was 11 µM.

In general, Kd refers to the constant that tells how readily two partners part at equilibrium. A low value points to tighter binding.
